Assay results published in patent US20210395344A1 (TWIST BIOSCIENCE, published 2021).
Read-outs that look alike come from different tables or passages of the source.

Tests used:
Test in all cases: phage ELISA
[1] = biological target: T1, Acro COVID S1 (S1N-C82E8) (SARS-CoV-2, UniProt P0DTC2 16-685)
T1 construct: domain: S1

[2] = biological target: T1, Acro COVID S1 (S1N-C82E8); remark: listed apart in the source
[3] = biological target: T2, Acro COVID S1 (S1N-C82E8) (SARS-CoV-2, UniProt P0DTC2 16-685)
T2 construct: domain: S1 (subunit 1)

Row | Binder | ELISA fold over background [1] [fold over background] | ELISA fold over background [2] [fold over background] | specificity ELISA, fold over background [3] [fold over background]
1 | 1-32 (antibody, V domains shown, also called variant 1-32) VH: EVQLLESGGGLVQPGGSLRLSCAASGFTFSSYAMYWVRQAPGKGLEWVSAISGSGGSTFYADSVKGRFTISRDNSKNTLYLQMNSLRAEDTAVYYCTRPPYGDYGDYWGQGTLVTVSS VL: QSALTQPASVSGSPGQSITISCTGTSSDVGGYNLVSWYQQHPGKAPKLMIYEGNKRPSGVSNRFSGSKSGNTASLTISGLQAEDEADYYCCSYAGSSTFPVVFGGGTKLTVL | 11.5 | 11.5 | 
2 | 1-29 (antibody, V domains shown, also called variant 1-29) VH: EVQLLESGGGLVQPGGSLRLSCAASGFTFSSYAMYWVRQAPGKGLEWVSAISGSAGSTYYADSVKGRFTISRDNSKNTLYLQMNSLRAEDTAVYYCARDTNDFWSGYSIFDPWGQGTLVTVSS VL: QSALTQPASVSGSPGQSITISCTGTSSDIGSYNLVSWYQQHPGKAPKLMIYEGTKRPSGVSNRFSGSKSGNTASLTISGLQAEDEADYYCCSYAGSRTYVFGGGTKLTVL | 1.1 | 1.1 | 
3 | SARS-CoV-2 variant 1-29 (antibody, V domains shown) VH: EVQLLESGGGLVQPGGSLRLSCAASGFTFSSYAMYWVRQAPGKGLEWVSAISGSAGSTYYADSVKGRFTISRDNSKNTLYLQMNSLRAEDTAVYYCARDTNDFWSGYSIFDPWGQGTLVTVSS VL: QSALTQPASVSGSPGQSITISCTGTSSDIGSYNLVSWYQQHPGKAPKLMIYEGTKRPSGVSNRFSGSKSGNTASLTISGLQAEDEADYYCCSYAGSRTYVFGGGTKLTVL |  |  | 1.1
4 | SARS-CoV-2 variant 1-17 (antibody, V domains shown) VH: EVQLLESGGGLVQPGGSLRLSCAASGFTFSSYAMYWVRQAPGKGLEWVSAISGSAGSTYYADSVKGRFTISRDNSKNTLYLQMNSLRAEDTAVYYCARDTNDFWSGYSIFDPWGQGTLVTVSS VL: QSALTQPASVSGSPGQSITISCTGTSSDIGSYNLVSWYQQHPGKAPKLMIYEGTKRPSGVSNRFSGSKSGNTASLTISGLQAEDEADYYCCSYAGSRTYVFGGGTKLTVL |  |  | 25.1
5 | SARS-CoV-2 variant 1-37 (antibody, V domains shown) VH: EVQLLESGGGLVQPGGSLRLSCAASGFTFTSYAMNWVRQAPGKGLEWVTAISGSGGSTFYADSVKGRFTISRDNSKNTLYLQMNSLRAEDTAVYYCTRPPYGDYGDYWGQGTLVTVSS VL: QSALTQPASVSGSPGQSITISCTGTSSDIGSYNLVSWYQQHPGKAPKLMIYEGTKRPSGVSNRFSGSKSGNTASLTISGLQAEDEADYYCCSYAGSRTYVFGGGTKLTVL |  |  | 11.6
6 | 1-2 (antibody, V domains shown, also called variant 1-2) VH: EVQLLESGGGLVQPGGSLRLSCAASGFTFSSQAMSWVRQAPGKGLEWVSAISGSGGGTYYADSVKGRFTISRDNSKNTLYLQMNSLRAEDTAVYYCAKDRRFGEFDPWGQGTLVTVSS VL: QSALTQPASVSGSPGQSITISCTGTSSGVGSYNLVSWYQQHPGKAPKLMIYEGIKRPSGVSNRFSGSKSGNTASLTISGLQAEDEADYYCCSYAGSSSFVVFGGGTKLTVL | 1.8 | 1.8 | 
7 | 1-31 (antibody, V domains shown, also called variant 1-31) VH: EVQLLESGGGLVQPGGSLRLSCAASGFTFSSYAMNWVRQAPGKGLEWVSAISGSGGSTFYADSVKGRFTISRDNSKNTLYLQMNSLRAEDTAVYYCTRPPYGDYGDYWGQGTLVTVSS VL: QSALTQPASVSGSPGQSITISCTGTSSDVGKYNLVSWYQQHPGKAPKLMIYEGSQRPSGVSNRFSGSKSGNTASLTISGLQAEDEADYYCCSYAGSRTPVVFGGGTKLTVL | 30.4 | 30.4 | 
8 | 1-10 (antibody, V domains shown, also called variant 1-10) VH: EVQLLESGGGLVQPGGSLRLSCAASGFTFSSYDMSWVRQAPGKGLEWVSVISGSGGSTYYADSVKGRFTISRDNSKNTLYLQMNSLRAEDTAVYYCAKGPLVGWYFDLWGQGTLVTVSS VL: QSALTQPASVSGSPGQSITISCTGTSSNVGSYNLVSWYQQHPGKAPKLMIYEGTKRPSGVSNRFSGSKSGNTASLTISGLQAEDEADYYCCSYAGSSSFVVFGGGTKLTVL | 17.4 | 17.4 | 
9 | 1-47 (antibody, V domains shown, also called variant 1-47) VH: EVQLLESGGGLVQPGGSLRLSCAASGFTFSSQAMSWVRQAPGKGLEWVSAISGSGGGTYYADSVKGRFTISRDNSKNTLYLQMNSLRAEDTAVYYCAKDRRFGEFDPWGQGTLVTVSS VL: QSALTQPASVSGSPGQSITISCTGTSSGVGSYNLVSWYQQHPGKAPKLMIYEGIKRPSGVSNRFSGSKSGNTASLTISGLQAEDEADYYCCSYAGSSSFVVFGGGTKLTVL | 8.1 | 8.1 | 
10 | SARS-CoV-2 variant 1-47 (antibody, V domains shown) VH: EVQLLESGGGLVQPGGSLRLSCAASGFTFSSQAMSWVRQAPGKGLEWVSAISGSGGGTYYADSVKGRFTISRDNSKNTLYLQMNSLRAEDTAVYYCAKDRRFGEFDPWGQGTLVTVSS VL: QSALTQPASVSGSPGQSITISCTGTSSGVGSYNLVSWYQQHPGKAPKLMIYEGIKRPSGVSNRFSGSKSGNTASLTISGLQAEDEADYYCCSYAGSSSFVVFGGGTKLTVL |  |  | 8.1
11 | 1-27 (antibody, V domains shown, also called variant 1-27) VH: EVQLLESGGGLVQPGGSLRLSCAASGFTFSSYAMTWVRQAPGKGLEWVSAISGSGGGTYYADSVKGRFTISRDNSKNTLYLQMNSLRAEDTAVYYCASSSSWQFDYWGQGTLVTVSS VL: QSALTQPASVSGSPGQSITISCTGTSSYVGHYNLVSWYQQHPGKAPKLMIYEGSRRPSGVSNRFSGSKSGNTASLTISGLQAEDEADYYCCSYAGSYTHYVFGGGTKLTVL | 1.5 | 1.5 | 
12 | SARS-CoV-2 variant 1-26 (antibody, V domains shown) VH: EVQLLESGGGLVQPGGSLRLSCAASGFTFSSYAISWVRQAPGKGLEWVSAISGSGYSTYYADSVKGRFTISRDNSKNTLYLQMNSLRAEDTAVYYCARGAPDSSGYYFQGEVYFDYWGQGTLVTVSS VL: QSALTQPASVSGSPGQSITISCTGTSSDVGGYNLVSWYQQHPGKAPKLMIYEGTKRPSGVSNRFSGSKSGNTASLTISGLQAEDEADYYCCSFVRSSAHVVFGGGTKLTVL |  |  | 1.4
13 | 1-3 (antibody, V domains shown, also called variant 1-3) VH: EVQLLESGGGLVQPGGSLRLSCAASGFTFSSQAMSWVRQAPGKGLEWVSAISGSGGGTYYADSVKGRFTISRDNSKNTLYLQMNSLRAEDTAVYYCAKDRRFGEFDPWGQGTLVTVSS VL: QSALTQPASVSGSPGQSITISCTGISSDVGSYNLVSWYQQHPGKAPKLMIYEGTKRPSGVSNRFSGSKSGNTASLTISGLQAEDEADYYCCSYAGSSSFVVFGGGTKLTVL | 1.6 | 1.6 | 
14 | 1-30 (antibody, V domains shown, also called variant 1-30) VH: EVQLLESGGGLVQPGGSLRLSCAASGFTFSSYAMTWVRQAPGKGLEWVSAISGSGGSTFYADSVKGRFTISRDNSKNTLYLQMNSLRAEDTAVYYCTRPPYGDYGDYWGQGTLVTVSS VL: QSALTQPASVSGSPGQSITISCTGTSRDVGSYNLVSWYQQHPGKAPKLMIYEGTKRPSGVSNRFSGSKSGNTASLTISGLQAEDEADYYCCSYAGSRTPVVFGGGTKLTVL | 16.8 | 16.8 | 
15 | 1-28 (antibody, V domains shown, also called variant 1-28) VH: EVQLLESGGGLVQPGGSLRLSCAASGFTFSSYGMSWVRQAPGKGLEWVSAISGSGGGTYYADSVKGRFTISRDNSKNTLYLQMNSLRAEDTAVYYCASSSSWQFDYWGQGTLVTVSS VL: QSALTQPASVSGSPGQSITISCTGTSSGVGSYNLVSWYQQHPGKAPKLMIYEGSQRPSGVSNRFSGSKSGNTASLTISGLQAEDEADYYCCSYAGSSTHYVFGGGTKLTVL | 1 | 1 | 
16 | 1-5 (antibody, V domains shown, also called variant 1-5) VH: EVQLLESGGGLVQPGGSLRLSCAASGFTFSSQAMSWVRQAPGKGLEWVSAISGSGGGTYYADSVKGRFTISRDNSKNTLYLQMNSLRAEDTAVYYCAKDRRFGEFDPWGQGTLVTVSS VL: QSALTQPASVSGSPGQSITISCTGTSSGVGSYNLVSWYQQHPGKAPKLMIYEASKRPSGVSNRFSGSKSGNTASLTISGLQAEDEADYYCCSYAGSYTFAVFGGGTKLTVL | 1.5 | 1.5 | 
17 | 1-4 (antibody, V domains shown, also called variant 1-4) VH: EVQLLESGGGLVQPGGSLRLSCAASGFTFSSQAMSWVRQAPGKGLEWVSAISGSGGGTYYADSVKGRFTISRDNSKNTLYLQMNSLRAEDTAVYYCAKDRRFGEFDPWGQGTLVTVSS VL: QSALTQPASVSGSPGQSITISCTGTSSDVGTYNLVSWYQQHPGKAPKLMIYEGSQRPSGVSNRFSGSKSGNTASLTISGLQAEDEADYYCCSYAGSSSFVVFGGGTKLTVL | 1 | 1 | 
18 | 1-7 (antibody, V domains shown, also called variant 1-7) VH: EVQLLESGGGLVQPGGSLRLSCAASGFTFSSYDMSWVRQAPGKGLEWVSVISGSGGSTYYADSVKGRFTISRDNSKNTLYLQMNSLRAEDTAVYYCAKGPLVGWYFDLWGQGTLVTVSS VL: QSALTQPASVSGSPGQSITISCTGTSSDFGSYNLVSWYQQHPGKAPKLMIYEGNKRPSGVSNRFSGSKSGNTASLTISGLQAEDEADYYCCSYAGSSTFVVFGGGTKLTVL | 6.8 | 6.8 | 
19 | 1-23 (antibody, V domains shown, also called variant 1-23) VH: EVQLLESGGGLVQPGGSLRLSCAASGFTFSSYAISWVRQAPGKGLEWVSIISGSGGSTYYADSVKGRFTISRDNSKNTLYLQMNSLRAEDTAVYYCAREGYRDYLWYFDLWGQGTLVTVSS VL: QSALTQPASVSGSPGQSITISCTGTSNDVGSYNLVSWYQQHPGKAPKLMIYEGNKRPSGVSNRFSGSKSGNTASLTISGLQAEDEADYYCCSYAGSYTVFGGGTKLTVL | 5.1 | 5.1 | 
20 | 1-24 (antibody, V domains shown, also called variant 1-24) VH: EVQLLESGGGLVQPGGSLRLSCAASGFTFSSYAMNWVRQAPGKGLEWVSIISGSGGSTYYADSVKGRFTISRDNSKNTLYLQMNSLRAEDTAVYYCAREGYRDYLWYFDLWGQGTLVTVSS VL: QSALTQPASVSGSPGQSITISCTGTSSDVGYYNLVSWYQQHPGKAPKLMIYEGNKRPSGVSNRFSGSKSGNTASLTISGLQAEDEADYYCCSYAGGSVVFGGGTKLTVL | 12.9 | 12.9 | 
